# T1: spectacled caiman hemoglobin beta-type chain (Caiman crocodilus (endogenous in red …, UniProt P02131 1-146))
# T1 sequence (looked up): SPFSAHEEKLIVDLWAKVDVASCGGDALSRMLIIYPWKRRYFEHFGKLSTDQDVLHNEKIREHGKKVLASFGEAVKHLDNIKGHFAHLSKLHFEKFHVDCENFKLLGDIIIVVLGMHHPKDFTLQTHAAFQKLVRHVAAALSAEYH
# Molecular target: T1, spectacled caiman hemoglobin beta-type …
# Test: SEC
binder,measurement,value
spectacled caiman hemoglobin alpha-type chain (natural protein) not shown,binding result,binds

# — paper doi:10.1101/2021.03.22.436447 (bioRxiv, 2021)
